Results: the supplement of paper PMC7877785
± gives the uncertainty stated by the source.

Test: self-splicing fitness, log relative to wild type (ln ratio); higher = more splicing; Tetrahymena group I intron in knt gene, E. coli kanamycin selection, DiMSum; sequences stand for … in CUCUCU…GGAGGGAAAAGUUAUCAGGCAUGCACCUGGUAGCUAGUCUUUAAACCAAUAGAUUGCAUCGGUUUAAAAGGCAAGACCGUCAAAUUGCGGGAAAGGGGUCAACAGCCGUUCAGUACCAAGUCUCAGGGGAAACUUUGAGAUGGCCUUGCAAAGGGUAUGGUAAUAAGCUGACGGACAUGGUCCUAACCACGCAGCCAAGUCCUAAGUCAACAGAUCUUCUGUUGAUAUGGAUGCAGUUCACAGACUAAAUGUCGGUCGGGGAAGAUGUAUUCUUCUCAUAAGAUAUAGUCGGACCUCUCCUUAAUGGGAGCUAGCGGAUGAAGUGAUGCAACACUGGAGCCGCUGGGAACUAAUUUGUAUGCGAAAGUAUAUUGAUUAGUUUUGGAGUACUCGUGGUCG
Method in brief: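 Six replicate transformations of E. coli BL21(DE3) with a pET-22b(+) library were grown overnight at 37°C or 30°C. The library randomised all eight P1ex-region intron nucleotides, the intron lying in the knt kanamycin-resistance gene, and plates were LB agar with or without 25 μg/mL kanamycin plus 100 μg/mL carbenicillin, 50 μM IPTG and 0.2% rhamnose. Pooled colonies were amplicon-sequenced on an Illumina HiSeq 2500, and fitness is the DiMSum error-weighted combination of wild-type-normalised replicate fold changes, kanamycin versus none.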

Sequence | self-splicing fitness (ln) (30 °C) | self-splicing fitness (ln) (37 °C)
GCUUAGCAAUAUUACGAGCA | -2.24 ± 0.14 | -0.963 ± 0.13
GAUUAGCAAUAUUACGAAUG | -0.837 ± 0.14 | -0.649 ± 0.16
UAGUAGCAAUAUUACGACCA | -0.4 ± 0.15 | 0.221 ± 0.17
ACCGAGCAAUAUUACGAUCA | -2.6 ± 0.24 | -0.928 ± 0.19
AUGAAGCAAUAUUACGUGGU | -1.71 ± 0.07 | -1.31 ± 0.087
UCAAAGCAAUAUUACGACAU | -3.633 ± 0.023 | -2.37 ± 0.036
GAGUAGCAAUAUUACGCGAG | -3.35 ± 0.16 | -0.947 ± 0.1
UGUCAGCAAUAUUACGAUGG | -0.3 ± 0.073 | 0.195 ± 0.098
GAAGAGCAAUAUUACGUUUA | -1.61 ± 0.15 | -2.56 ± 0.2
AUACAGCAAUAUUACGCCCA | -0.142 ± 0.1 | -0.545 ± 0.14
ACCUAGCAAUAUUACGCCAC | -2.11 ± 0.4 | 
GGGCAGCAAUAUUACGGACG | -1.01 ± 0.056 | 0.591 ± 0.078
CGCAAGCAAUAUUACGCACG | -2.96 ± 0.23 | -1.24 ± 0.17
UAUAAGCAAUAUUACGCUCU | -0.357 ± 0.11 | 0.0533 ± 0.16
UGUUAGCAAUAUUACGUAUC |  | -0.937 ± 0.26
CGGAAGCAAUAUUACGCAGU | -2.73 ± 0.14 | -2.25 ± 0.21
GGCAAGCAAUAUUACGGGAU | -2.31 ± 0.086 | -0.713 ± 0.089
GCAAAGCAAUAUUACGGACA | -0.517 ± 0.18 | -0.839 ± 0.14
UGCUAGCAAUAUUACGCCGA | -2.48 ± 0.25 | -1 ± 0.19

Sequence | self-splicing fitness (ln) (30 °C) | self-splicing fitness (ln) (37 °C)
GCAGAGCAAUAUUACGUUGG | -2.91 ± 0.18 | -1.09 ± 0.19
AGCUAGCAAUAUUACGACGA | -1.17 ± 0.12 | -0.734 ± 0.14
GGGAAGCAAUAUUACGAGUU | -2.86 ± 0.15 | -1.02 ± 0.099
UCGGAGCAAUAUUACGUUAA | -2.69 ± 0.31 | -2.78 ± 0.32
GAGGAGCAAUAUUACGAUGC | -2.85 ± 0.26 | -1.21 ± 0.21
AUCUAGCAAUAUUACGCGUA | -0.86 ± 0.11 | -0.721 ± 0.13
CUGAAGCAAUAUUACGCUGA | -3.66 ± 0.24 | -3.28 ± 0.43
AACGAGCAAUAUUACGGUAC |  | -1.34 ± 0.22
UACCAGCAAUAUUACGGAUG | -0.756 ± 0.055 | 0.494 ± 0.085
UACAAGCAAUAUUACGCUAC | -3.76 ± 0.29 | -2.26 ± 0.21
UCGAAGCAAUAUUACGGAGG | -2.79 ± 0.32 | -1.82 ± 0.41
AUCGAGCAAUAUUACGCCCA | -1.77 ± 0.24 | -1.37 ± 0.3
GUAUAGCAAUAUUACGAAUU | -3.2 ± 0.22 | -1.13 ± 0.18
UGCAAGCAAUAUUACGACCC | -2.05 ± 0.49 | 0.223 ± 0.43
AGGCAGCAAUAUUACGAUUU | -0.23 ± 0.085 | -0.332 ± 0.1
ACACAGCAAUAUUACGAUAA | -2.46 ± 0.098 | -1.97 ± 0.11
AGUCAGCAAUAUUACGAUUU | -0.399 ± 0.064 | -0.286 ± 0.11
ACGAAGCAAUAUUACGGAGC | -3.94 ± 0.27 | -1.29 ± 0.23
ACAAAGCAAUAUUACGGAAU | -3.21 ± 0.19 | -1.82 ± 0.19
